# Laboratory results: the DeepSol protein solubility set
# Experiment: soluble on expression in E. coli; label from the status in PepcDB or PDB records
row,Sequence,soluble on expression in E. coli
1,MAHHHHHHMPTFSDIMAARKALDGYVYETPIIESNALHGKTRHESVLLKCENLQRTGSYHVRGMTYRVIRAKEEDLGINNFVTHSSGNGGAALACAASNFQSTAHVVVPEDTNALITRSIRLYHGNFYYCKPDLKSRVEMEARLHSEFNKVAGKKRNQCMLVNPYSDEAIIAGHGTTGIEIMLQTDCSVDCVVIPVGGGALLAGAAIAVKGMKPHVGVFAAELAVPPDHYTVFKRGEVIEARKLKGDEKRPKGNKHGIRTELTDLANSYIDRYVDGVVHVSKEEMCYAFRYVYERCKLVVDTNAAIAVAAVLACPQELSNYRRICIVLSGGNVDLNDVPKIATARL,soluble
2,MAHHHHHHMQNLSPACTFNKNEEKIKCPSSTKLGCSDGTKIIQHEINERNMMPEIPNVSLTDENDFTFNKKRHVSSIPKNNNEYWVYPSSQQFYNSLIRKNKDIDKNYIDAVVSVHNEVNEESWKQILKYEHMHKRSCTDVTLHRFLGKFDDLSIKARFRSIFSRGKKKKNNNNNKKSVKGFFFMGRPFDRHDWYVNRCGTQVKYILDYYNDESINDDKNIYIDVRPAMNSFSNVWDRLRYPFYEFYFKYVKKDELFK,not soluble
3,MAHHHHHHMQRDVYASLIKKRHKQMVPLLIHQVSGDITRENIFDEVFHGYKLRRIVLMTHMAATPATLPRLPRDIIVSDFDKLKAIHQPHFHYKLLPLLCTDFEAFSALQGICASANSPFTIEDRKDPQGLTHRLSNGCSERQALCEFFDPHIAPAEKLVPVFSRKLPISAVVFDGLLLKQNYPKVAALLTVHEAASEKSIIERAIMRDFFVSPLYTKVSGNSDVAQSLRLVHHCTHFMALKRAVGSDAPSRQSLMRLAAEKKLFMYEKIGDEYQFVH,soluble
4,MAHHHHHHMRGEHELVIPGEQRRDWCSTDACENRLCRKKFSLLVSKQHCQWCGRIFCDNCAPCTATYGGRRLRRCNSCKFPAVFRSLRNLRTGKRDGSVARLIMSFLDSRSINALMHSCYTSLSEFNVGDYVYYESITDRFPTFFEGAMIGKGGFGSVYKCEDRSYPCRRRVALKVITKASVVTYRSWKKIVTELEIMQDVDHHNVAKLLEVLQTPHHLVIVMEAGDGGSLMQAWRLAKEYKYDVEVLVANVVLQVAEGLDYLYHKKGIVHRDIKLENIVLSHDFKRVMIIDFGLAEYVKQCETQLFVPCGTAGYTSPENIRAVVERRRVYEALGETMHLADMYSLGVVAYVLLCGHMPVATRCFSSLYQNMLKGIRCVGPHWANVSDDAKSLVESLVKTNSFERATVAVIREHPFIQAKAPLIVEIVQRHMHKQTETERREVKEWVYVEPLSDHWDMIEVETVSDEENRGLALRKGSSTFGRVGFMNRLKSVVWD,not soluble
5,MAHHHHHHMRKVKKNKQVRNMLKSLTERVDTDDGENEYARLTQTPVVKMNLSKVKLKTSLQSVLVEPYTEKVKDFVAKTNYEISMEKTLLDEIKNANQNMDRIGDVLSARGGKQRKTRDNHHIMGRYFHYLRDKNEDFGLSFFPVYKTFKSNFSHFSDNLNSSLYPHELLEMGSMSSGNFLKNSSKRISFPERGDS,not soluble
6,MAHHHHHHMRLIESRQMHEWDNAADSSLDVDHPEDAPFGQGPERQQQRDGKSNLGDQSDYGEEARTEATWLWRFGFPRTEDEKAYVASHLWSKGLRRRVAQLTDVRRRGRPGEFVIGVPEGLQHLREQRERLERERFGGVKVFPPQNA,not soluble
7,MAHHHHHHMRRSSSCLYKIPKNTGVAPRFDTWNEKYEPWEHLKRMGRLAGTGFYIPPEWYNHFRMFPPINHNFQQEKTLNPHNVSEPTQDDTDYLSVERIALRDELARKSRLLASEGMRYYNVFWIRKPLDRMERHYYELERKGVAHSVAIKRVLQMFYDELTVKKRVAAIQAEEAKLSGKYISMREATVLMGVLTQLQKEQLTPHQVTLLAKEQREKAQAGEAFAATVERSTETVADAAKDAAEGDEVMSADSLAELLSTEADLDDSSPSISYKVTIHETEHDSVKQLQELALDHTGKSDWYTGASPVLHMEEAMPAKRTPASKKTES,not soluble
8,MAHHHHHHMRRTAFSLMIVPPESHRYAKATFHEGVHRQAPGDSTPWRDVASPLNRFKMWWLAPAAKGTMTAAWCMTIVMGAYCFSIQQDAKGTYLLNNVLLRTLHEEAMRADANQERANELQEYLKQRLEKLEAGGKAASRNMGGDAVKEGLINHELEISRERVRSDSIHQRNQQLVDELLKVRQELAVTRKKHSAALSEIDKLQKLLKACT,not soluble
9,MAHHHHHHMRSSQFLLSGLRRTAILMTISDEYIPRAFPVKSTTGLAGIAVEPLWKPKLLAAASELQAFLTSSDIPPESTYYNIAMTLVKRVNHGIKECQDDWCTLEKRYFWGWPVEYILQVTWRELETAQKWNEWRFWELDPEQVKKVAREDQNIGREGLGYNSPWEQVVREDFDKRKKALTQEEMAELKRMDTERMARETAAYKERKDRIRDDLEKARGDMLKKFLNKRFAVDKDLQRMQPGKRYSGKTADDLIAELKSSVENNPQKSDLGK,not soluble
10,MAHHHHHHMRVSPNSLSEAASQLEQDRERDFFRLLYIVDRARRFLSIPVGNVDWRLTCDCLDDMNHRYADTGFLLGFTGGYVLRNRAGRTLLSRFWFSMYLGLVFYDWELRRTTRAPALEYWNSICTVDTEVGRIARVLHTPARFYEAAPMSTAFSGGPPPLPRGSSSSPSPAPHGASVRDWLWRYVSDTMSSVLLMTLCSHLFEGSSWRHRTSDNVEVTALVINSRFFHWKVFESCQVQRNETTEYNISLKWFPSFAASDSLRRSFQCRELILERSTLGGRLWYRTHFSLLRCLGLDSQ,not soluble
11,MAHHHHHHMRVYYSNLVKDKRKCLNFIKVEKKYGGTSLLTKIGQAFNQEHLRNMKTKLDDVKKSSSPFFGTSMEGSNNIFKNFIDIFRKNNIIKDKLKINDSEKKEKEFYMFYVNSLMKYEGIFTYGKFQAFLKDLCDYFNIFSIKYKYKKKMNPQFEKLKKQYEVLNSFLPYELDNDDYKIFTQESKKYIAQAANVDIKFIDELLLFHDTLKTDRTWFYRRKVLKRNIPESFEAREMEAPYDRPVPKTYNYNIKEHSLEYDEFMKKHGRKLKFKQWNSKQHPWFRKNTSGRNRWATRPYTKQFPYLYYSRVPSHMYLSKNKPKISH,not soluble
12,MAHHHHHHMSAAVQTLATVMATDMNYYAGDPTVLAADAASSRVEQILQSSRSDQLTARVAIHAQLREAFKNVDVQQRFKPFLSDGENIQMYVQDAKARARFFSQKQQELQHDILQSEEQRQLKEAHGELAAWERENAVLLRHQMFMTYMPSQALLLESAATVALYRQYATLEEGQYTSDSSDGEVPMMLKKMGGKTYFTQSEQPFEVDTHNKMFSQQVLQNKRVEYEQMREKAAQLRQALEECPTVKRLEAFVELRNDIFVAYGIDRLASLCSRKDKEMGNPNEGGVDASLHGLPADDEYVSSSRVAQYSLPKIVDAAYKNYLNILSMDDWDAMMKHTGSNARAVMEKIKPMKDKETFRYWFLSCITADVPQMGPNKIVGQKATTLEDYKKFWAPQKSNYVPSLTSNRSIFGSKVADRRGLPHFLILSPVTYRYRENNDPNAVKTGTMDLMVYDATNEKVLLMLTNSSDERRPRAAFLKAQEERYRFAAVVRSAITYENQYHGFECEGTVAEYFFDAQEGPEENYYCIMAPHRVYSKQPNKVQVPMKALRPFTSCPPRYFVLGSNWGVSAGTRRNPYPASYAHVELNENAVGLSNVIPDGFISSKVLPQLLSHAEGVQKLEEEMKRQQRAELERPQLSPRALTRASRGGAATPRPSTAPPSPENNAADILADENMRGPGEEEDPLSPLVPNEVLRPVRDQLLKQRRSWQSPAYIAFRARDSDLRRLPAVKDGHLRTPLNVFNDLMREKHGEDAPPASAPSSARRSNGPPSSRTASVACT,not soluble
13,MAHHHHHHMSAKLTVAVPRLASTVLLLARNPKHAISEQRPATGDNAARENDIHVLIMKRHGKARFMPGVYVFPGGGIEGSDYAAATHYLAEHYNLHLQDAADKKVTTQDFIESCGQPSAEEAELEAWACRVGALRELAEEAACVLRRDGCIFSEAEWIKWQKSRSDAGATGGASTDPVSSRPATLLPIYDLPAVSSLRPVARWVSPRQSRYRYDTYFYAALVNSALVSAEAHKAAHAPCSTQASSCDEANAGMGVRCIPPQELPLLEQASEVSELLWISPLEALRRHEDPSDVFSLAPPTYLLLHALSLQPSFASLAAAWAAAPASPEDPAAKPLGDLPHSSVLPCVEPLSTMTEDGRRIMKFVLPARYFHETGWSVAEGEYLFPGECCAGHRHFIHVFVGRAGATTGDGATADKPCTILH,not soluble
14,MAHHHHHHMSGAFGCGSYRSVVAGTQNVPRRMTFYPSAYELIQLHKAHREVIRHFYVRDKIFDNKFPGNALANGLFKFVPNRRENYHMRELMESIRRRSIWMHRIKQQREINAKVVENMEVKYGKKAAASMLCFTTPDSNAYFAPHRYQDVANSWPNYWQHPSVNHVVPKPRWRRHRELGGITRVEDPFAVQASDY,not soluble
15,MAHHHHHHMSGVVIKKPNLKRLLAGQREELASFQPPVHPIPEYLGSPLPYLSNPYHIRGTLMAVEQEPEPNHEADGGKQLMADIMNERARICLEVEKTLALTCRVLDKAAQNDGELTELARESLARLTVMGEDLSNRMITSRE,not soluble
16,MAHHHHHHMSKLIKLDCGVQHYAWGKEAAESYVAKMKGEGNKEGKYAELWVGTHPNCPSKTFSGQNLDDFLKNDNNMSRFVHPKQQADPRFRDTVPFLLKLLSVQTALSIQAHPNKQLAEKLHRENPEKYKDPNHKPELVVALTPFEALCCFRPLKDILEFLESASPLKTLLGPAADVLPGEVEDSEAIKHMMDIVYNTDAKKHAEALQEHAEELRSRGGEMTKEDSVFLRVLYQYPDDMGCWMVYFLNYVQLAPGEGLFLADSEPHAYLFGDSVEIMACSDNVVRAGLTPKWKDVPTLLRMLRYGTDGLERAKFERYRAPEGSEWELQHYSPPREFQDFSLYRIEHRVERQGQTHIKLPTVGLGFCVEGCGIVNGERVRLGECFLVPYGDLKIEAFGDFQIFVASMNYSLHSASHM,soluble
17,MAHHHHHHMSNAEEETVKKKKKYRKDKPWDNENIDHWKVEKFTQEDNKHHFLEESSFKVLFPKYREKYLQQFSSDIKNVLNKHFIKFEIDLIEGYMCVKTTKKTFDPYIIIKSRDMISLLSRSVPFVHAKRVLEDETYCDIIKISGYVRNKNKFIKRRQRLLGSNATTLKALEILTNCYICIHGKTVSVIGHFKSLKVVRRIIIDCMKNIHPVYHIKELIAKRELEKNEEFKNENWEKFLPNFKKRNVQRKKIKEKLDKKKKKNKSVFPPDQLPRKIDIQMETGEYFLNNQKNKKKDKTQDKQQKGND,not soluble
18,MAHHHHHHMSNNYFNNEAPPDNINNLSYDEGLEQQYNFTDNEEEIFSSFFSDNKKNICLPKSLREHMLIEYTAMFVNIEGDIAEFYLKLDNDVLIKFPFLHVDHPLHRYYEFVKLNTKKRLITKYPKIIPSPLKDLFQYVTDLENTKVINNEIKSKKLKEKQIEHVKNKKGNKQILMKQKENQSYSSLFMRYMQSDDEKSNSTVENDKNEEHNEDTLSNESMMEIDNIIKKLKDKKDKSSMQTARFYLQCIEKLKFLQYGTKQYKYFVQKLLYDQNRLNVNNSDIKVRQKIHSTDFLEFLLKTDEHKKSLDNVINEDIYEQQNSHETETERDDLQTMQDYRR,not soluble
19,MAHHHHHHMSQNKLYKTNYGYNNPILLNKNERNIKTYVNQETMTNKLLTTYNRSPLQSNYEHNIPKIIHSSTIKKQGVINENNGDKIYKPNYRDMNNLYNSKYVFSKNTPEYINGRKQMITVYDNIKNEERNKSINYYKNKNMIKIPSSYNSNNGNKIKSNNVKDGVLQLEKGSIQNVAKNMNTFHNKSNENGKFIKKLNNSNYKEVTSNVDEIRLLNKSLSAKISSSIKTNYEKSNILDHKKNTNVKVSKISIENKKYNIRKKENMKWAPKYNNNNNNNNNKDHKNMIIESVKVVKNPKEINKKKTKIVQNKYKNPLPSYICLHFHDNSLNLNNGLKIFNDMITVDKNQRMKKWNGYEWDVIEKDFHFLIKARYDNKGNIWCINKSYEVLKIMRNKLKNFGHLGKEEIIDIGFDKKNILWCINRKGQLLKWVKTKWDNIQYKGFHKLICFSFDKKGELWAINLKKELAIWNKKNKCWDEKYIKDNLKISCIDFDGDGKLWVVSNSGALLTYSKDQWINFGLVCLDELICISFKKLQE,not soluble
